Laboratory results reported in patent publication US20240043507A1 (RQ BIOTECHNOLOGY, published 2024).
Changes are numbered by the printed parent chain.

B1: antibody 40 (antibody, V domains shown)
VH: QVQLVESGGGLVQPGGSLRLSCAVSGFTVSRNYMSWVRQAPGKGLEWVSLIYSGGSTFYADSVKGRFTISRDNSKNTLYLQMNSLRAEDTAVYYCARDLFHRSGYHDYWGQGTLVTVSS
VL: not shown
notes: also called mAb 40
B2: antibody 58 (antibody, V domains shown)
VH: QVQLVESGGGLVQPGRSLRLSCAASGFTFDDYAMHWVRQPPGKGLEWVSGVSWNSGTIGYADSVKGRFIISRDNAKNSLYLQMNSLKAEDTALYYCAREVGGTFGVLISREGGLDYWGQGTLVTVSS
VL: SYELTQPPSVSVAPGQTARITCGGNTIGSKSVHWYQQRPGQAPVLVVYDDSDRPSGIPERFSGSNSGNTATLTISRVEAGDEADYYCQVWDSSSDRVVFGGGTKLTVL
notes: also called mAb 58
B3: antibody 384 (antibody, V domains shown)
VH: EVQLVESGGGLVKPGESLRLSCAASGFTFSDYYMTWIRQAPGKGLEWVSYIRSSGHTIYYADSVKGRFTISRDNAKNSLYLQMNSLRVEDTAVYYCARGGVLRFLEWPLNAFDIWGQGTMVTVSS
VL: DIQLTQSPSSLSASVGDRVTITCRASQGISNYLAWYQQKPGKVPKLLIYAASTLQSGVPSRFSGSGSGTDFTLTISSLQPEDVATYYCQKYNNALGTFGQGTKVEIK
B4: antibody 281 (antibody, V domains shown)
VH: QVQLVESGGGLVQPGGSLRLSCAASGFPFSIYWMSWVRQAPGKGLEWVANIKQDGSEKYYVDSVKGRFTISRDNAKNSLYLHMNSLRGEDTAVYYCASRYYDFRPEAWFDYWGQGTLVTVSS
VL: not shown
B5: antibody 150 (antibody, V domains shown)
VH: QVQLVESGGGLIQPGGSLRLSCAASGVTVSSNYMSWVRQAPGKGLEWVSIIYSGGTTYYADSVKGRFTISRDSSMNTLYLQMNSLRAEDTAVYYCARDLMVYGIDVWGQGTTVTVSS
VL: EIVMTQSPSSLSASVGDRVTITCRASQGISSYLAWYQQKPGKAPKLLIYAASTLQSGVPSRFSGSGSGTDFTLTISSLQPEDFATYYCQQLDSYPPGYTFGQGTKVDIK
B6: antibody 40 (antibody, V domains shown)
VH: B1 VH
VL: not shown
B7: antibody 170 (antibody, V domains shown)
VH: QVQLVESGAEVKKPGESLKISCKGSGYSFTSYWIVWVRQMPGKGLEWMGIIYPGDSDTKYSPSFQGQVSISADKPISTAYLQWSRLKASDTAMYYCARLGNWLVDYWGQGTLVTVSS
VL: DIVMTQSPLSLSVTPGQPASISCKSSQSLLHSDGKTYLYWYLQKPGQPPQLLMYEVSNRFSGVPDRFSGSGSGTDFTLKISRVESEDVGVYYCMQSIQLPRGITFGQGTRLEIK
B8: antibody 175 (antibody, V domains shown)
VH: EVQLVESGGGLIQPGGSLRLSCAASGLTVSRNYMSWVRQAPGKGLEWVSLIYSGGSTYYADSVKGRFTISRDNSKNTLYLQMNSLRAEDTAVYYCARDLRGEVWGQGTMVTVSS
VL: not shown
B9: antibody 88 (antibody, V domains shown)
VH: QLQLQESGPGLVKPSQTLSLTCTVSGGSISSGSYNWTWIRQPAGKGLEWIGRIYNSGSTNYNPSLKSRVTISVDTSKNQLSLKVRSVTAADTAVYYCARHCSGGTCYPKYYYGMDVWGQGTTVTVSS
VL: QSALTQPPSVSEAPRQRVTISCSGSSSNIGNNAVNWYQQFPGKAPKLLIYYDDLLPSGVSDRFSGSKSGTSASLAISGVQSEDEADYYCAAWDDSLNVVVFGGGTKLTVL
B10: antibody 58 (antibody, V domains shown)
VH: B2 VH
VL: B2 VL
B11: antibody 222 (antibody, V domains shown)
VH: EVQLVESGGGLIQPGGSLRLSCAASGLTVSSNYMSWVRQAPGKGLEWVSVIYSGGSTFYADSVKGRFTISRDNSKNTLYLQMNSLGAEDTAVYYCARGEGSPGNWFDPWGQGTLVTVSS
VL: DVVMTQSPGTLSLSPGERATLSCRASQSVPSSYLAWYQQKPGQAPRLLIYGASTRATGIPDRFSGSGSGTDFTLTISRLEPEDFAVYYCQHYDTSPRFGGGTKVDIK
B12: antibody 253H165L (antibody, V domains shown)
VH: not shown
VL: DIVMTQSPGTLSLSPGERATLSCRASQSVRSSYLAWYQQKPGQAPRLLIYGASRRGTGIPDRFSGSGSGTDFTLTISRLEPEDFAVYYCQQYGSSPWTFGQGTKVEIK
B13: antibody 165 (antibody, V domains shown)
VH: QVQLVQSGPEVKKPGTSVKVSCKASGFTFTSSAVQWVRQARGQRLEWIGWIVVGSGNTNYAQKFQESVTITRDMSTSTAYMELSSLRSEDTAVYYCAAPHCIGGSCHDAFDIWGQGTMVTVSS
VL: B12 VL
B14: antibody 316 (antibody, V domains shown)
VH: not shown
VL: QAVLTQPPSASGSPGQSVTISCTGTSSDVGGYNYVSWYQQHPGKAPKLMIYEVSKRPSGVPDRFSGSKSGNTASLTVSGLQAEDEADYYCSSYAGSNHWVFGGGTKLTVL
B15: antibody 398 (antibody, V domains shown)
VH: QVQLVESGGGLVQPGGSLRLSCAASGFTVSSNYMTWVRQAPGKGLEWVSVIYSGGSTYYADSVKGRFTISRDNSKNTLYLQMNSLRADDTAVYYCARDSTADYDFWSGYYVGAFHIWGQGTMVTVSS
VL: B14 VL with A2T, P8A, A10V, V18I, S54T, H98N
B16: antibody 278 (antibody, V domains shown)
VH: QVQLVQSGAEVKKPGASVKVSCKASGYIFIRYGISWVRQAPGQGLEWMGWISANNGYTNYAQKLQGRVTMTTDTSTSTAYMELRSLRSDDTAVYYCARDGGILTGYLDYFDHWGQGTLVTVSS
VL: DIQMTQSPSSLSASVGDRLTITCRASQSIASYLNWYQQKPGKAPKLLIYAASSLQSGVPSRFSGSGSGTDFTLTISSLQPEDFATYHCQQSYSTLGITFGPGTKVDIK
B17: antibody 269 (antibody, V domains shown)
VH: QVQLVESGGGLIQPGGSLRLSCAASGLTVNRNYMSWIRQAPGKGLEWVSVIYSGGSTFYADSVKGRFTISRDNSKNTLSLQMNSLRAEDTAIYYCARDFYEGSFDIWGQGTMVTVSS
VL: AIQLTQSPSFLSASIGDRVTITCRASQGISSYLAWYQQKPGKAPKLLIYAASTLQSGVPSRFSGSGSGTEFTLTISSLQPEDFASYYCQQLNSYPAPVFGPGTKVDIK
B18: antibody 132 (antibody, V domains shown)
VH: QVQLQQWGAGLLKPSETLSLTCAVYGGSFSGYYWSWIRQPPGKGLEWIGEINHSGSTNYNPSLKSRVTISVDTSKNQFSLKLSSVTAADTAVYYCARTDYYDSIDWGQGTLVTVSS
VL: QSVLTQEPSLTVSPGGTVTLTCGSSTGAVTSGHYPYWFQQKPGQVPRTLIYDTRNKHSWTPARFSGSLLGGKAALTLSGAQPEDEAEYYCLLSSSGARVFGGGTKLTVL
B19: antibody 318 (antibody, V domains shown)
VH: QVQLVQSGPEVKKPGTSVKVSCKASGFTLTSSAMQWVRQARGQRLEWIGWIVVGSGNTNYAQKFQERVTITRDMSTSTAYMELSSLRSEDTAVYYCAAGRGYNSDFDYWGQGTLVTVSS
VL: AIRMTQSPGTLSLSPGERATLSCRASQSVSSSYLAWYQQRPGQAPRLLIYGTSSRATGIPDRFSGSGSGTDFTLTISRLEPEDFAVYYCQQYGYSVYTFGQGTKVDIK
B20: antibody 384 (antibody, V domains shown)
VH: B3 VH
VL: B3 VL
B21: antibody 158 (antibody, V domains shown)
VH: EVQLLESGGDLIQPGGSLRLSCAASGVTVSSNYMSWVRQAPGKGLEWVSIIYPGGSTFYADSVKGRFTISRDNSKNTLYLQMHSLRAEDTAVYYCARDLGSGDMDVWGKGTTVTVSS
VL: DIVMTQSPSFLSASVGDRVTITCRASQGISSYLAWYQQKPGKAPKLLIQAASTLQSGVPSRFSGSGSGTEFTLTISSLQPEDFATYYCQQLNSYRYTFGQGTKVEIK

molecular target: spike protein of SARS-CoV-2 strain B.1.1.7 (SARS-CoV-2, UniProt P0DTC2 14-1273); test: cell-based or functional assay

Binder	IC50 (FRNT neutralisation)
B1	0.035 µg/mL
B2	0.116 µg/mL
B3	0.005 µg/mL

molecular target: spike protein of SARS-CoV-2 strain Victoria (SARS-CoV-2/human/AUS/VIC01/2020) (SARS-CoV-2, UniProt P0DTC2 14-1273); test: cell-based or functional assay

Binder	IC50 (FRNT neutralisation)
B1	0.026 µg/mL
B2	0.041 µg/mL

molecular target: spike protein of SARS-CoV-2 strain P.1 (SARS-CoV-2, UniProt P0DTC2 14-1273); test: cell-based or functional assay

Binder	IC50 (FRNT neutralisation)
B1	0.153 µg/mL
B2	0.236 µg/mL
B3	> 10 µg/mL

molecular target: spike protein of SARS-CoV-2 strain B.1.351 (SARS-CoV-2, UniProt P0DTC2 14-1273); test: cell-based or functional assay

Binder	IC50 (FRNT neutralisation)
B1	0.738 µg/mL
B2	0.136 µg/mL
B3	> 10 µg/mL

molecular target: spike protein of SARS-CoV-2 strain B.1.351 (SARS-CoV-2, UniProt P0DTC2 14-1273); test: cell-based or functional assay; remark: another data set of the same source

Binder	IC50 (FRNT, live virus neutralisation)	B.1.351/Victoria ratio (IC50)
B4	> 10 µg/mL	
B5	0.35 µg/mL	30
B6	0.738 µg/mL	
B7	> 10 µg/mL	
B8	> 10 µg/mL	
B9	> 10 µg/mL	
B10	0.136 µg/mL	
B11	0.017 µg/mL	
B12	0.013 µg/mL	
B13	0.054 µg/mL	
B14	> 10 µg/mL	
B15	> 10 µg/mL	
B16	0.16 µg/mL	
B17	> 10 µg/mL	
B18	> 10 µg/mL	
B19	0.019 µg/mL	
B20	> 10 µg/mL	
B21	> 10 µg/mL	

molecular target: spike protein of SARS-CoV-2 strain Victoria (SARS-CoV-2/human/AUS/VIC01/2020) (SARS-CoV-2, UniProt P0DTC2 14-1273); test: cell-based or functional assay; remark: another data set of the same source

Binder	IC50 (FRNT, live virus neutralisation)
B4	0.005 µg/mL
B5	0.012 µg/mL
B6	0.026 µg/mL
B7	0.025 µg/mL
B8	0.026 µg/mL
B9	0.033 µg/mL
B10	0.041 µg/mL
B11	0.019 µg/mL
B12	0.003 µg/mL
B13	0.034 µg/mL
B14	0.018 µg/mL
B15	0.091 µg/mL
B16	0.014 µg/mL
B17	0.03 µg/mL
B18	0.048 µg/mL
B19	0.029 µg/mL
B21	0.031 µg/mL
